This is an account of results in PMC6783537, “Structural basis of the activation of type 1 insulin-like growth factor receptor” (Nature Communications, 2019).

The data set deals with the molecule itself. As to the kind of experiment: cryo-EM structure; purified MmIGF1R and HsIGF1 mixed at molar ratio 1:2, 1 h at 4 °C, complex purified by SEC in 20 mM Hepes-Na pH 7.4, 200 mM NaCl, 0.03% DDM; 4.3 Å. A general note: In gel filtration, larger molecules generally elute earlier.

B1: full-length mouse IGF1R (MmIGF1R), residues 1–1262, Y951A, D1107N (receptor)
chain: not shown
notes: Mouse type 1 insulin-like growth factor receptor with C-terminal tail truncation and kinase dead mutation, residues 1–1262, Y951A, D1107N; Disulfide-linked covalent dimer of two protomers; it is written here as one chain per protomer; also called type 1 insulin-like growth factor receptor; not shown: Tsi3, C-terminal, cleaved
For the protein B1, the “stoichiometry N” value worked out at 2.

What is called stoichiometry N is a count of units in the complex or per binding partner.
